Measured values taken from patent US20160115241A1 (Amgen, published 2016).
Blank lines part the entries; values can stand above or below the binder they belong to.

Columns and labels:
[1] = molecular target: T1, cynomolgus monkey CD3 epsilon chain (CD3ε) (cynomolgus monkey (Macaca fascicularis), UniProt Q95LI5 22-198); experiment: cell-based or functional assay
T1 chain: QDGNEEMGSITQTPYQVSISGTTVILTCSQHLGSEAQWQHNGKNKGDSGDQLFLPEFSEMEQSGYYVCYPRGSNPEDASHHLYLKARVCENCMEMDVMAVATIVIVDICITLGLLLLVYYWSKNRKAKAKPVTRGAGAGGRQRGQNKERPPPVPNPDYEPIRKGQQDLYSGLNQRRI

[2] = molecular target: T2, human CD3 epsilon chain (CD3ε) (human, UniProt P07766 22-207); experiment: FACS on isolated human T cells; FITC anti-human light chain secondary
T2 construct: also called CD3ε on human T cells; human CD3ε
T2 sequence (P07766 22-207 limits assumed): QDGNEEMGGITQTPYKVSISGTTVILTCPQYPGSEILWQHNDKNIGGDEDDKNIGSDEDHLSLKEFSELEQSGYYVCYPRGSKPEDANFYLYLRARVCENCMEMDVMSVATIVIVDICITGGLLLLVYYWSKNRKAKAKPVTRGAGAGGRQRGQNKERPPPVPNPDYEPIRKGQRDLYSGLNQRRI
Experimental: (§1) The heterodimeric bispecific antibodies described in Example 1 were produced in HEK 293 cells and were assayed by fluorescence activated cell sorting (FACS) for binding to T cells, which express CD3ε, and to a human ovarian cancer cell line, Ovcar-8, which expresses mesothelin. Briefly, the heterodimeric bispecific antibodies were incubated with about 50,000 Ovcar-8 cells or isolated human or cynomolgus monkey T cells at 4° C. for one hour. The cells were then washed and stained with a fluorescein isothiocyanate (FITC)-conjugated anti-human light chain secondary antibody and analyzed by flow cytometry. The relative binding was represented by the geometric mean of fluorescence intensity.

[3] = molecular target: T1, cynomolgus monkey CD3 epsilon chain …; experiment: FACS on isolated cynomolgus monkey T cells; FITC anti-human light chain secondary
Experimental: as §1

[4] = molecular target: human mesothelin (MSLN) (human, UniProt Q13421 296-598); experiment: cell-based or functional assay
Chain of human mesothelin (MSLN) (Q13421 other isoform, or with tags, fused parts or gaps limits assumed): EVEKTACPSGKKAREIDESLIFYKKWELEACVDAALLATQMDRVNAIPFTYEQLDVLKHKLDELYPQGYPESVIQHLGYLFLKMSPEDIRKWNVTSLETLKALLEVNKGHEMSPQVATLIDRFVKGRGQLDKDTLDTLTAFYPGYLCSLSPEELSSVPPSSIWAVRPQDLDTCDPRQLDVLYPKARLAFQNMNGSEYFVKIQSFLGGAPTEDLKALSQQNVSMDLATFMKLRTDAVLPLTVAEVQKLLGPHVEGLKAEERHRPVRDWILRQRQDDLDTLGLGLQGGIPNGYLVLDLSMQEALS

B3: P73352.3 (anti-MSLN/CD3ε heterodimeric bispecific antibody with Fc region, without CH1 and CL) (bispecific antibody)
chain 1: EVQLVESGGGLVKPGVSLRLSCAASGFTFSRYGMNWVRQAPGKGLEWVSSISSSGTYIKYADSVKGRFTISRDNAKNSLNLQMNSLRAEDTAVYYCARDRDRYPLDYWGQGTLVTVSSGGGGSGGGGSDIQMTQSPSSLSASVGDRVTITCRASQSINNYLNWYQQKPGKAPTLLIYAASSLQSGVPSRFSGSRSGTDFTLTISSLQPEDFAAYFCQQTYSNPTFGQGTKVEVKRAAAEPKSSDKTHTCPPCPAPELLGGPSVFLFPPKPKDTLMISRTPEVTCVVVNVSHEDPEVKFNWYVDGVEVHNAKTKPREEQYNSTYRVVSVLTVLHQDWLNGKEYKCKVSNKALPAPIEKTISKAKGQPREPQVYTLPPSREEMTKNQVSLTCLVKGFYPSDIAVEWESNGQPENNYDTTPPVLDSDGSFFLYSDLTVDKSRWQQGNVFSCSVMHEALHNHYTQKSLSLSPGK
chain 2: QVQLQESGPGLVKPSQTLSLTCTVSGGSINNNNYYWTWIRQHPGKGLEWIGYIYYSGSTFYNPSLKSRVTISVDTSKTQFSLKLSSVTAADTAVYYCAREDTMTGLDVWGQGTLVTVSSGGGGSGGGGSSSYELTQPPSVSVSPGQTARITCSGDALPKKYAYWYQQKSGQAPVLVIYEATKRPSGIPERFSGSSSGTMATLTLSGAQVEDEADYYCYSTDSTNYHWVFGGGTKLTVLGAAAEPKSSDKTHTCPPCPAPELLGGPSVFLFPPKPKDTLMISRTPEVTCVVVDVSHEDPEVKFNWYVDGVEVHNAKTKPREEQYNSTYRVVSVLTVLHQDWLNGKEYKCKVSNKQLPAPIEKTISKAKGQPREPQVYTLPPSRKEMTKNQVSLTCLVKGFYPSDIAVEWESNGQPENNYKTTPPVLKSDGSFFLYSKLTVDKSRWQQGNVFSCSVMHEALHNHYTQKSLSLSPGKAAAHHHHHH
human TDCC EC50, killing of Ovcar-8 cells [4]: < 1 pM

B5: P73356.3 (anti-MSLN/CD3ε heterodimeric bispecific antibody with Fc region) (bispecific antibody, human IgG1)
chain 1: QVQLQESGPGLVKPSQTLSLTCTVSGGSINNNNYYWTWIRQHPGKGLEWIGYIYYSGSTFYNPSLKSRVTISVDTSKTQFSLKLSSVTAADTAVYYCAREDTMTGLDVWGQGTLVTVSSGGGGSGGGGSSSYELTQPPSVSVSPGQTARITCSGDALPKKYAYWYQQKSGQAPVLVIYEATKRPSGIPERFSGSSSGTMATLTLSGAQVEDEADYYCYSTDSTNYHWVFGGGTKLTVLGASTKGPSVFPLAPCSRSTSESTAALGCLVKDYFPEPVTVSWNSGALTSGVHTFPAVLQSSGLYSLSSVVTVPSSNFGTQTYTCNVDHKPSNTKVDKTVAAAEPKSSDKTHTCPPCPAPELLGGPSVFLFPPKPKDTLMISRTPEVTCVVVDVSHEDPEVKFNWYVDGVEVHNAKTKPREEQYNSTYRVVSVLTVLHQDWLNGKEYKCKVSNKQLPAPIEKTISKAKGQPREPQVYTLPPSRKEMTKNQVSLTCLVKGFYPSDIAVEWESNGQPENNYKTTPPVLKSDGSFFLYSKLTVDKSRWQQGNVFSCSVMHEALHNHYTQKSLSLSPGKAAAHHHHHH
chain 2: EVQLVESGGGLVKPGVSLRLSCAASGFTFSRYGMNWVRQAPGKGLEWVSSISSSGTYIKYADSVKGRFTISRDNAKNSLNLQMNSLRAEDTAVYYCARDRDRYPLDYWGQGTLVTVSSGGGGSGGGGSDIQMTQSPSSLSASVGDRVTITCRASQSINNYLNWYQQKPGKAPTLLIYAASSLQSGVPSRFSGSRSGTDFTLTISSLQPEDFAAYFCQQTYSNPTFGQGTKVEVKRTVAAPSVFIFPPSDEQLKSGTASVVCLLNNFYPREAKVQWKVDNALQSGNSQESVTEQDSKDSTYSLSSTLTLSKADYEKHKVYACEVTHQGLSSPVTKSFNRGECAAAEPKSSDKTHTCPPCPAPELLGGPSVFLFPPKPKDTLMISRTPEVTCVVVAVSHEDPEVKFNWYVDGVEVHNAKTKPREEQYNSTYRVVSVLTVLHQDWLNGKEYKCKVSNKALPAPIEKTISKAKGQPREPQVYTLPPSREEMTKNQVSLTCLVKGFYPSDIAVEWESNGQPENNYDTTPPVLDSDGSFFLYSDLTVDKSRWQQGNVFSCSVMHEALHNHYTQKSLSLSPGK
human TDCC EC50, killing of Ovcar-8 cells [4]: < 1 pM

Now from value to binder, other results behind:

Cyno TDCC EC50 (pM), Ovcar-8 target cells with cynomolgus monkey T cells [1]: 18.8 pM
FACS binding (geometric mean) [2]: 11 geometric mean of fluorescence intensity
FACS binding (geometric mean) [3]: 110 geometric mean of fluorescence intensity
B1: H69072.4 (anti-MSLN/CD3ε heterodimeric bispecific antibody) (bispecific antibody)
chain 1: DIQMTQSPSSVSASVGDRVTITCRASQGISSWLAWYQQKPGKAPKLLIYAASSLQSGVPSRFSGSGSGAAFTLTISSLQPEDFATYFCQQANSFPLTFAGGTKVDIKRGGGGSGGGGSQVQLQESGPGLVKPSQTLSLTCTVSGGSINNNNYYWTWIRQHPGKGLEWIGYIYYSGSTFYNPSLKSRVTISVDTSKTQFSLKLSSVTAADTAVYYCAREDTMTGLDVWGQGTTVTVSSASTKGPSVFPLAPCSRSTSESTAALGCLVKDYFPEPVTVSWNSGALTSGVHTFPAVLQSSGLYSLSSVVTVPSSNFGTQTYTCNVDHKPSNTKVDKTVGGGGSAAAVPRDLEVVAATPTSLLISWDAPHHGVAYYRITYGETGGNSPVQEFTVPGSKSTATISGLKPGVDYTINVYAVLAYPRGYPLSKPISINYRTDYKDDDDKGSSHHHHHH
chain 2: DIQMTQSPSSLSASVGDRVTITCRASQSINNYLNWYQQKPGKAPTLLIYAASSLQSGVPSRFSGSRSGTDFTLTISSLQPEDFAAYFCQQTYSNPTFGQGTKVEVKGGGGSGGGGSQVQLVESGGGVVQPGRSLRLSCAASGFTFSSYGMHWVRQAPGKGLEWVAVISYPGNTKYYADSVKGRFTISRDNSKNTLYLQMNSLRAEDTAVYFCARDQKEWRLIFDYWGQGTLVTVSSRTVAAPSVFIFPPSDEQLKSGTASVVCLLNNFYPREAKVQWKVDNALQSGNSQESVTEQDSKDSTYSLSSTLTLSKADYEKHKVYACEVTHQGLSSPVTKSFNRGEC
Cyno TDCC Max killing (%), Ovcar-8 target cells with cynomolgus monkey T cells [1]: 91%

Cyno TDCC EC50 (pM), Ovcar-8 target cells with cynomolgus monkey T cells [1]: 3.2 pM
FACS binding (geometric mean) [2]: 16 geometric mean of fluorescence intensity
FACS binding (geometric mean) [3]: 121 geometric mean of fluorescence intensity
B2: H69071.4 (anti-MSLN/CD3ε heterodimeric bispecific antibody) (bispecific antibody)
chain 1: QVQLQESGPGLVKPSQTLSLTCTVSGGSINNNNYYWTWIRQHPGKGLEWIGYIYYSGSTFYNPSLKSRVTISVDTSKTQFSLKLSSVTAADTAVYYCAREDTMTGLDVWGQGTLVTVSSGGGGSGGGGSDIQMTQSPSSVSASVGDRVTITCRASQGISSWLAWYQQKPGKAPKLLIYAASSLQSGVPSRFSGSGSGAAFTLTISSLQPEDFATYFCQQANSFPLTFAGGTKVDIKRASTKGPSVFPLAPCSRSTSESTAALGCLVKDYFPEPVTVSWNSGALTSGVHTFPAVLQSSGLYSLSSVVTVPSSNFGTQTYTCNVDHKPSNTKVDKTVGGGGSAAAVPRDLEVVAATPTSLLISWDAPHHGVAYYRITYGETGGNSPVQEFTVPGSKSTATISGLKPGVDYTINVYAVLAYPRGYPLSKPISINYRTDYKDDDDKGSSHHHHHH
chain 2: QVQLVESGGGVVQPGRSLRLSCAASGFTFSSYGMHWVRQAPGKGLEWVAVISYPGNTKYYADSVKGRFTISRDNSKNTLYLQMNSLRAEDTAVYFCARDQKEWRLIFDYWGQGTLVTVSSGGGGSGGGGSDIQMTQSPSSLSASVGDRVTITCRASQSINNYLNWYQQKPGKAPTLLIYAASSLQSGVPSRFSGSRSGTDFTLTISSLQPEDFAAYFCQQTYSNPTFGQGTKVEVKRTVAAPSVFIFPPSDEQLKSGTASVVCLLNNFYPREAKVQWKVDNALQSGNSQESVTEQDSKDSTYSLSSTLTLSKADYEKHKVYACEVTHQGLSSPVTKSFNRGEC
Cyno TDCC Max killing (%), Ovcar-8 target cells with cynomolgus monkey T cells [1]: 88%

Cyno TDCC EC50 (pM), Ovcar-8 target cells with cynomolgus monkey T cells [1]: 8.1 pM
FACS binding (geometric mean) [2]: 66 geometric mean of fluorescence intensity
FACS binding (geometric mean) [3]: 276 geometric mean of fluorescence intensity
B4: H71365.2 (anti-MSLN/CD3ε heterodimeric bispecific antibody) (bispecific antibody)
chain 1: QVQLVESGGGVVQPGRSLRLSCAASGFTFSSYGMHWVRQAPGKGLEWVAVISYPGNTKYYADSVKGRFTISRDNSKNTLYLQMNSLRAEDTAVYFCARDQKEWRLIFDYWGQGTLVTVSSGGGGSGGGGSQVQLQESGPGLVKPSQTLSLTCTVSGGSINNNNYYWTWIRQHPGKGLEWIGYIYYSGSTFYNPSLKSRVTISVDTSKTQFSLKLSSVTAADTAVYYCAREDTMTGLDVWGQGTTVTVSSASTKGPSVFPLAPCSRSTSESTAALGCLVKDYFPEPVTVSWNSGALTSGVHTFPAVLQSSGLYSLSSVVTVPSSNFGTQTYTCNVDHKPSNTKVDKTVGGGGSAAAVPRDLEVVAATPTSLLISWDAPHHGVAYYRITYGETGGNSPVQEFTVPGSKSTATISGLKPGVDYTINVYAVLAYPRGYPLSKPISINYRTDYKDDDDKGSSHHHHHH
chain 2: DIQMTQSPSSVSASVGDRVTITCRASQGISSWLAWYQQKPGKAPKLLIYAASSLQSGVPSRFSGSGSGAAFTLTISSLQPEDFATYFCQQANSFPLTFAGGTKVDIKRGGGGSGGGGSDIQMTQSPSSLSASVGDRVTITCRASQSINNYLNWYQQKPGKAPTLLIYAASSLQSGVPSRFSGSRSGTDFTLTISSLQPEDFAAYFCQQTYSNPTFGQGTKVEVKRTVAAPSVFIFPPSDEQLKSGTASVVCLLNNFYPREAKVQWKVDNALQSGNSQESVTEQDSKDSTYSLSSTLTLSKADYEKHKVYACEVTHQGLSSPVTKSFNRGEC
Cyno TDCC Max killing (%), Ovcar-8 target cells with cynomolgus monkey T cells [1]: 86%
